{"source": "the supplement of paper PMC5998384", "key": {"HeLa Kyoto [1]": {"system": "HeLa Kyoto", "assay": "solubility in G1/S (NP-40 vs SDS abundance) (log2 ratio); higher = more soluble", "details": "cell cycle stage: G1/S"}, "HeLa Kyoto [2]": {"system": "HeLa Kyoto", "assay": "thermal stability score vs G1/S (z-score of summed log2 fold changes over temperatures); higher = more thermally stable than in G1/S"}, "HeLa Kyoto [3]": {"system": "HeLa Kyoto", "assay": "melting temperature (median over replicates), in situ; higher = more thermally stable"}, "HeLa Kyoto [4]": {"system": "HeLa Kyoto", "assay": "solubility change mitosis vs G1/S (difference of NP-40 vs SDS log2 ratios) (log2 ratio difference); higher = more soluble in mitosis"}, "[5]": {"details": "cell cycle stage: early G1 (4.5 h after nocodazole release)"}}, "data": [{"sequence": "MVLNSLDKMIQLQKNTANIRNICVLAHVDHGKTTLADCLISSNGIISSRLAGKLRYMDSREDEQIRGITMKSSAISLHYATGNEEYLINLIDSPGHVDFSSEVSTAVRICDGCIIVVDAVEGVCPQTQAVLRQAWLENIRPVLVINKIDRLIVELKFTPQEAYSHLKNILEQINALTGTLFTSKVLEERAERETESQVNPNSEQGEQVYDWSTGLEDTDDSHLYFSPEQGNVVFTSAIDGWGFGIEHFARIYSQKIGIKKEVLMKTLWGDYYINMKAKKIMKGDQAKGKKPLFVQLILENIWSLYDAVLKKDKDKIDKIVTSLGLKIGAREARHSDPKVQINAICSQWLPISHAVLAMVCQKLPSPLDITAERVERLMCTGSQTFDSFPPETQALKAAFMKCGSEDTAPVIIFVSKMFAVDAKALPQNKPRPLTQEEIAQRRERARQRHAEKLAAAQGQAPLEPTQDGSAIETCPKGEEPRGDEQQVESMTPKPVLQEENNQESFIAFARVFSGVARRGKKIFVLGPKYSPLEFLRRVPLGFSAPPDGLPQVPHMAYCALENLYLLMGRELEYLEEVPPGNVLGIGGLQDFVLKSATLCSLPSCPPFIPLNFEATPIVRVAVEPKHPSEMPQLVKGMKLLNQADPCVQILIQETGEHVLVTAGEVHLQRCLDDLKERFAKIHISVSEPIIPFRETITKPPKVDMVNEEIGKQQKVAVIHQMKEDQSKIPEGIQVDSDGLITITTPNKLATLSVRAMPLPEEVTQILEENSDLIRSMEQLTSSLNEGENTHMIHQKTQEKIWEFKGKLEQHLTGRRWRNIVDQIWSFGPRKCGPNILVNKSEDFQNSVWTGPADKASKEASRYRDLGNSIVSGFQLATLSGPMCEEPLMGVCFVLEKWDLSKFEEQGASDLAKEGQEENETCSGGNENQELQDGCSEAFEKRTSQKGESPLTDCYGPFSGQLIATMKEACRYALQVKPQRLMAAMYTCDIMATGDVLGRVYAVLSKREGRVLQEEMKEGTDMFIIKAVLPVAESFGFADEIRKRTSGLASPQLVFSHWEIIPSDPFWVPTTEEEYLHFGEKADSENQARKYMNAVRKRKGLYVEEKIVEHAEKQRTLSKNK [EFTUD1]", "values": [{"measurement": "solubility in G1/S (log2)", "setting": "HeLa Kyoto [1]", "result": -0.156}, {"measurement": "thermal stability score", "setting": "HeLa Kyoto [2]; [5]", "result": 0.0185}, {"measurement": "thermal stability score", "setting": "HeLa Kyoto [2]; cell cycle stage: mitosis", "result": -0.212}, {"measurement": "melting temperature", "setting": "HeLa Kyoto [3]; cell cycle stage: G1/S", "result": 50.3, "unit": "°C"}, {"measurement": "melting temperature", "setting": "HeLa Kyoto [3]; cell cycle stage: mitosis", "result": 50, "unit": "°C"}, {"measurement": "solubility change mitosis (log2)", "setting": "HeLa Kyoto [4]", "result": -0.154}]}, {"sequence": "MVLTLGESWPVLVGRRFLSLSAADGSDGSHDSWDVERVAEWPWLSGTIRAVSHTDVTKKDLKVCVEFDGESWRKRRWIEVYSLLRRAFLVEHNLVLAERKSPEISERIVQWPAITYKPLLDKAGLGSITSVRFLGDQQRVFLSKDLLKPIQDVNSLRLSLTDNQIVSKEFQALIVKHLDESHLLKGDKNLVGSEVKIYSLDPSTQWFSATVINGNPASKTLQVNCEEIPALKIVDPSLIHVEVVHDNLVTCGNSARIGAVKRKSSENNGTLVSKQAKSCSEASPSMCPVQSVPTTVFKEILLGCTAATPPSKDPRQQSTPQAANSPPNLGAKIPQGCHKQSLPEEISSCLNTKSEALRTKPDVCKAGLLSKSSQIGTGDLKILTEPKGSCTQPKTNTDQENRLESVPQALTGLPKECLPTKASSKAELEIANPPELQKHLEHAPSPSDVSNAPEVKAGVNSDSPNNCSGKKVEPSALACRSQNLKESSVKVDNESCCSRSNNKIQNAPSRKSVLTDPAKLKKLQQSGEAFVQDDSCVNIVAQLPKCRECRLDSLRKDKEQQKDSPVFCRFFHFRRLQFNKHGVLRVEGFLTPNKYDNEAIGLWLPLTKNVVGIDLDTAKYILANIGDHFCQMVISEKEAMSTIEPHRQVAWKRAVKGVREMCDVCDTTIFNLHWVCPRCGFGVCVDCYRMKRKNCQQGAAYKTFSWLKCVKSQIHEPENLMPTQIIPGKALYDVGDIVHSVRAKWGIKANCPCSNRQFKLFSKPASKEDLKQTSLAGEKPTLGAVLQQNPSVLEPAAVGGEAASKPAGSMKPACPASTSPLNWLADLTSGNVNKENKEKQPTMPILKNEIKCLPPLPPLSKSSTVLHTFNSTILTPVSNNNSGFLRNLLNSSTGKTENGLKNTPKILDDIFASLVQNKTTSDLSKRPQGLTIKPSILGFDTPHYWLCDNRLLCLQDPNNKSNWNVFRECWKQGQPVMVSGVHHKLNSELWKPESFRKEFGEQEVDLVNCRTNEIITGATVGDFWDGFEDVPNRLKNEKEPMVLKLKDWPPGEDFRDMMPSRFDDLMANIPLPEYTRRDGKLNLASRLPNYFVRPDLGPKMYNAYGLITPEDRKYGTTNLHLDVSDAANVMVYVGIPKGQCEQEEEVLKTIQDGDSDELTIKRFIEGKEKPGALWHIYAAKDTEKIREFLKKVSEEQGQENPADHDPIHDQSWYLDRSLRKRLHQEYGVQGWAIVQFLGDVVFIPAGAPHQVHNLYSCIKVAEDFVSPEHVKHCFWLTQEFRYLSQTHTNHEDKLQVKNVIYHAVKDAVAMLKASESSFGKP [KDM3A]", "values": [{"measurement": "solubility in G1/S (log2)", "setting": "HeLa Kyoto [1]", "result": 0.0198}, {"measurement": "thermal stability score", "setting": "HeLa Kyoto [2]; [5]", "result": -0.474}, {"measurement": "thermal stability score", "setting": "HeLa Kyoto [2]; cell cycle stage: mitosis", "result": 0.304}, {"measurement": "melting temperature", "setting": "HeLa Kyoto [3]; cell cycle stage: G1/S", "result": 48.6, "unit": "°C"}, {"measurement": "melting temperature", "setting": "HeLa Kyoto [3]; cell cycle stage: mitosis", "result": 50.4, "unit": "°C"}, {"measurement": "solubility change mitosis (log2)", "setting": "HeLa Kyoto [4]", "result": -0.158}]}, {"sequence": "MVPLVAVVSGPRAQLFACLLRLGTQQVGPLQLHTGASHAARNHYEVLVLGGGSGGITMAARMKRKVGAENVAIVEPSERHFYQPIWTLVGAGAKQLSSSGRPTASVIPSGVEWIKARVTELNPDKNCIHTDDDEKISYRYLIIALGIQLDYEKIKGLPEGFAHPKIGSNYSVKTVEKTWKALQDFKEGNAIFTFPNTPVKCAGAPQKIMYLSEAYFRKTGKRSKANIIFNTSLGAIFGVKKYADALQEIIQERNLTVNYKKNLIEVRADKQEAVFENLDKPGETQVISYEMLHVTPPMSPPDVLKTSPVADAAGWVDVDKETLQHRRYPNVFGIGDCTNLPTSKTAAAVAAQSGILDRTISVIMKNQTPTKKYDGYTSCPLVTGYNRVILAEFDYKAEPLETFPFDQSKERLSMYLMKADLMPFLYWNMMLRGYWGGPAFLRKLFHLGMS [SQRDL]", "values": [{"measurement": "solubility in G1/S (log2)", "setting": "HeLa Kyoto [1]", "result": 0.148}, {"measurement": "thermal stability score", "setting": "HeLa Kyoto [2]; [5]", "result": 0.51}, {"measurement": "thermal stability score", "setting": "HeLa Kyoto [2]; cell cycle stage: mitosis", "result": -4.29}, {"measurement": "melting temperature", "setting": "HeLa Kyoto [3]; cell cycle stage: G1/S", "result": 54.3, "unit": "°C"}, {"measurement": "melting temperature", "setting": "HeLa Kyoto [3]; cell cycle stage: mitosis", "result": 54.3, "unit": "°C"}, {"measurement": "solubility change mitosis (log2)", "setting": "HeLa Kyoto [4]", "result": -0.0579}]}]}
